US20240424023A1

Tests used:
[1] = target: CD80-mCherry expressed on DG75 cells (UniProt P33681); assay: cell-based or functional assay
[2] = target: CD86-mCherry expressed on DG75 cells (UniProt P42081); assay: cell-based or functional assay
Sequence of UniProt P42081 (P42081 24-329): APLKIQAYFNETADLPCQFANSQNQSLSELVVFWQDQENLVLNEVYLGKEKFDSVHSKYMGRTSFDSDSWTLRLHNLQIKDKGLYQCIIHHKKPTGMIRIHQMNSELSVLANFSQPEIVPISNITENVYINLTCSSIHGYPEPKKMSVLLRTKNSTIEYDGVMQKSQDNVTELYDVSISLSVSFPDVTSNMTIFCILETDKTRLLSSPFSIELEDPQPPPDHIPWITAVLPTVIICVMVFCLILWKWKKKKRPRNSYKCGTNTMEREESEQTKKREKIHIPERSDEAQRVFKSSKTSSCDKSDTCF

Sequence of UniProt P33681 (P33681 35-288): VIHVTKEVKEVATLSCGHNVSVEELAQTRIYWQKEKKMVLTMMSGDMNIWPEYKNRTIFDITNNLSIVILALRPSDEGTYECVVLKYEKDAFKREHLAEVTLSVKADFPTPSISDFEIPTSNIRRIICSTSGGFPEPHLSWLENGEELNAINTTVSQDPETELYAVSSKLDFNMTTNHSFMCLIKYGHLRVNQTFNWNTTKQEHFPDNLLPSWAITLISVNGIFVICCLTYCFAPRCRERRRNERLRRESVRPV

CTLA4 expressed from a CTLA4-P2A-GFP transgene in human T cells (exon 1 cDNA insertion, intron 1 insertion of exons 2-4 with WPRE donor, or lentiviral vector) (from UniProt P16410 36-223) (receptor)
transendocytosis, cells edited with the cDNA exon 1 insertion (fold less than unedited cells) [1]: 2
transendocytosis, cells edited with the cDNA exon 1 insertion (fold less than unedited cells) [2]: 2
